Laboratory results: patent publication US20040097712A1 (Amgen, published 2004)

What was measured:
[1] = biological target: T1, IL-1R1 on human cells (primary human chondrocytes; human whole blood) (human, UniProt P14778 18-569); assay: cell-based or functional assay
T1 sequence (looked up): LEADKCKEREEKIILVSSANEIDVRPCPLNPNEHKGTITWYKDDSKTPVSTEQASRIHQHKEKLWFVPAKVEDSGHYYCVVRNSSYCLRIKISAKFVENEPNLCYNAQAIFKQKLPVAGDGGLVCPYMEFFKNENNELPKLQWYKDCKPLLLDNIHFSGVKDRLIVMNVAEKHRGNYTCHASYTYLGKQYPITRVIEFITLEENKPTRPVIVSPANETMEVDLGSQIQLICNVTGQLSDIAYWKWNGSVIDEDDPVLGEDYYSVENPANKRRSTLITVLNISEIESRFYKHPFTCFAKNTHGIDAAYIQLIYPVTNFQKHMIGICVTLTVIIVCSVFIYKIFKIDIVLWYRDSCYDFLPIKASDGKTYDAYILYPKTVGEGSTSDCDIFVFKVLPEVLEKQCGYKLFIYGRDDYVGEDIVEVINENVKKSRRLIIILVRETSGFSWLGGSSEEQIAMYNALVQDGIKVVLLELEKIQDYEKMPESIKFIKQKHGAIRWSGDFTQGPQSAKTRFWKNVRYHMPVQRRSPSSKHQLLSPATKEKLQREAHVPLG

[2] = biological target: T1, IL-1R1 on human cells (primary human …); assay: cell-based or functional assay; remark: listed apart in the source
[3] = biological target: T1, IL-1R1 on human cells (primary human …); assay: cell-based or functional assay; remark: listed apart in the source
[4] = biological target: T2, ovalbumin (negative control) (UniProt P01012 2-386); assay: ELISA, plates coated with the protein, anti-human Fc-HRP detection
T2 construct: also called OA
T2 sequence (looked up): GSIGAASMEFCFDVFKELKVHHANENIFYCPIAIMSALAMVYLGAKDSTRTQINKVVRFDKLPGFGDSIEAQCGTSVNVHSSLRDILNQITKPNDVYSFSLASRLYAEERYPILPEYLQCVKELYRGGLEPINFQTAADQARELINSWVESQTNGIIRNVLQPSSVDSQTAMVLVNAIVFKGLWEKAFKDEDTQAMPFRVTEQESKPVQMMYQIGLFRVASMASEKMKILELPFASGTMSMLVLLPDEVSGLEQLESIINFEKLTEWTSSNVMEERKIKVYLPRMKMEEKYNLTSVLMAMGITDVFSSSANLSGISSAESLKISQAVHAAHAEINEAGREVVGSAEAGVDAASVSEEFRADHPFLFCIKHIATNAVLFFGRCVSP
From the text: (§1) The antibodies were subjected to a preliminary epitope sorting experiment. ELISA plates were coated with human sIL-1R1 (1+2+3 domain), truncated human sIL-1R1 (1+2 domain), rat sIL-1R1, human sIL-1R type II, and ovalbumin (negative control). Antibody binding was detected with a horseradish peroxidase-conjugated anti-Human Fc antibody (Pierce Chemical Co., Rockford, Ill.). A check mark (√) in Table 2 represents a positive result for binding; “X” represents a negative result.

[5] = biological target: T3, rat sIL-1R1 (1+2+3 domain) (rat, UniProt Q02955 20-338); assay: as above
T3 construct: extracellular domain
T3 sequence (looked up): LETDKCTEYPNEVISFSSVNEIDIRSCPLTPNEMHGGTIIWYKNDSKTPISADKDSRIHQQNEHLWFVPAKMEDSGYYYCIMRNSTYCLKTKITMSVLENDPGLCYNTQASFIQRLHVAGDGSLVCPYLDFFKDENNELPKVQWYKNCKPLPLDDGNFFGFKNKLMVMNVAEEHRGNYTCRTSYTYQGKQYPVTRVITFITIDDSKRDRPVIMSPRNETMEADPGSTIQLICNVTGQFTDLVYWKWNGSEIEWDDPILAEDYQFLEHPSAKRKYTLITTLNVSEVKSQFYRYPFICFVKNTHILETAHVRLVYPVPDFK
From the text: as §1

[6] = biological target: T4, human sIL-1R type II (1+2+3 domain) (human, UniProt P27930 14-343); assay: as above
T4 construct: extracellular domain; also called Hu sIL-1RII; human type II receptor
T4 sequence (looked up): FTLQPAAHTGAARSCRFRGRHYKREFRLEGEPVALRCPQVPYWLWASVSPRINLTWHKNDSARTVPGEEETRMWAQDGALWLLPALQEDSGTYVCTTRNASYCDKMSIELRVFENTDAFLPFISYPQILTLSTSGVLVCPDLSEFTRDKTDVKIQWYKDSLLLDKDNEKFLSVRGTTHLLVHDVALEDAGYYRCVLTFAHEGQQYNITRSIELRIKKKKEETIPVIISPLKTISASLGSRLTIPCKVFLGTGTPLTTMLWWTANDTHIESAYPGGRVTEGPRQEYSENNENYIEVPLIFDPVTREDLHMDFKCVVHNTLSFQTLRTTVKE
From the text: as §1

- IC50, inhibition of IL-1β induced IL-6 production in primary human chondrocytes (Table 4A) [1]: 0.016 nM
- IC50, inhibition of IL-1β induced IL-6 production in primary human chondrocytes (Table 4B) [2]: 0.007 nM
- IC50, inhibition of IL-1-induced IL-6 production in human whole blood, composite (pooled data) [3]: 0.126 nM
- IC50, inhibition of IL-1-induced IL-6 production in human whole blood, donor 1047 [3]: 0.126 nM
- IC50, inhibition of IL-1-induced IL-6 production in human whole blood, donor 1319 [3]: 0.111 nM
- binding result [4]: no binding
- binding result [5]: no binding
- binding result [6]: no binding
B1: 15C4 human anti-IL-1R1 monoclonal antibody (purified from hybridoma supernatant) (antibody, V domains shown)
VH: EVQLMQSGAEVKKPGESLKISCKGSGYSFSFHWIAWVRQMPGKGLEWMGIIHPGASDTRYSPSFQGQVTISADNSNSATYLQWSSLKASDTAMYFCARQRELDYFDYWGQGTLVTVSS
VL: EIVLTQSPDFQSVTPKEKVTITCRASQSIGSSLHWYQQKPDQSPKLLIKYASQSFSGVPSRFSGSGSGTDFTLTINSLEAEDAAAYYCHQSSSLPLTFGGGTKVEIK
notes: Human IgG kappa from HuMab mice
